Measured values taken from PMC8240452.

Target: SARS-CoV-2 spike receptor-binding domain (RBD) (SARS-CoV-2, UniProt P0DTC2 319-541)
Experiment: 40 min incubation, immobilized aptamer

B1: SARS-CoV-2 RBD aptamer, amine-terminated (ssDNA)
DNA: CAGCACCGACCTTGTGCTTTGGGAGTGCTGGTCCAAGGGCGTTAATGGACA
modifications: 5'-NH2-(CH2)6
**Q.** With B1 as the binder, how does the Kd read?
**A.** The Kd was 3.4 nM.
